Key:
[1] = target: T1, Actin from rabbit muscle (Sigma A2522) (rabbit, UniProt P68135 1-377); experiment: SPR; BIAcore 3000; actin amine-coupled to a CM5 chip; hRNASET2, trT2-50, trT2-50m or peptides injected at 5 concentrations, 10 μl/min, 25°C, HBS (10 mM Hepes, 150 mM NaCl, 3 mM EDTA, 0.005% Polysorbate 20); global fit with BIAevaluation 3.2; details: both partners purified
[2] = target: T1, Actin from rabbit muscle (Sigma A2522); experiment: ELISA; solid-phase actin binding assay: 500 ng actin coated per well (MaxiSorp, carbonate-bicarbonate pH 9.5), blocked with 3% BSA; trT2-50, trT2-50m or peptides added in 1:2 dilutions from 500 ng/well in 100 μl TBS, 1 h 37°C; detected with rabbit anti-trT2-50 and goat anti-rabbit IgG-HRP, OD 655 nm; affinity by double reciprocal plot; details: both partners purified

- Kd [1]: 500 nM
- koff [1]: 0.00969 s⁻¹
- kon [1]: 19400 M⁻¹ s⁻¹
- Kd [2]: 34.5 nM
B1: trT2-50m (truncated hRNASET2 identical to trT2-50 but missing E120-V141) (domain or fragment)
chain: EGCNRSWPFNLEEIKDLLPEMRAYWPDVIHSFPNRSRFWKHEWEKHGTCAAQVDALNSQKKYFGRSLELYRADFKDALARVYGVIPKIQCLPPSQDEEVQTIGQIELCLTKQDQQLQNCTEPGEQPSPKQEVWLANGAAESRGLRVCEDGPVFYPPPKKTKH

Reference: PMC4341462, “Human RNASET2 derivatives as potential anti-angiogenic agents: actin binding sequence identification and characterization” (Oncoscience, 2014)
